Measured values as given in US20190241648A1 (STATEN BIOTECHNOLOGY B V, published 2019).
Ends that are not written are not given here.

Tests used:
Test in all cases: peptide microarray
ApoC3 peptide … S62M = ApoC3 peptide … S62M (human, cyclic constrained)
Protocol: (§1) F64 was completely variable.
(§2) Pre: staining of one of the ApoC3 peptide microarrays was done with the secondary antibody goat anti-human IgG (Fe) DyLight680 (1:5000) and control antibody mouse monoclonal anti-HA (12CA5) DyLight800 (1:2000) to investigate background interactions of the secondary antibody with the antigen-derived peptides that could interfere with the main assays. Subsequent incubation of other ApoC3 peptide microarrays with antibody samples was followed by staining with secondary and control antibodies as well as read-out at scanning intensities of 7/7 (red/green). The additional HA peptides framing the peptide arrays were stained as internal quality control to confirm the assay quality and the peptide microarray integrity.

ApoC3 peptide … E63G = ApoC3 peptide … E63G (human, cyclic constrained)
Protocol: as §1, §2

ApoC3 peptide … V71E = ApoC3 peptide … V71E (human, cyclic constrained)
Protocol: as §1, §2

ApoC3 peptide … D59I = target: T1, ApoC3 peptide … D59I (human, cyclic constrained)
T1 peptide: IKFSEFWDLDPEV
Protocol: as §1, §2

ApoC3 peptide … L67I = target: T2, ApoC3 peptide … L67I (human, not fully specified (bridges); also: cyclic constrained)
T2 peptide: DKFSEFWDIDPEV
Protocol: as §1, §2

ApoC3 peptide … W65C = ApoC3 peptide … W65C (human, cyclic constrained)
Protocol: as §1, §2

ApoC3 peptide … D66K = target: T3, ApoC3 peptide … D66K (human, not fully specified (bridges); also: cyclic constrained)
T3 peptide: DKFSEFWKLDPEV
Protocol: as §1, §2

ApoC3 peptide … W65D = ApoC3 peptide … W65D (human, cyclic constrained)
Protocol: as §1, §2

ApoC3 peptide … E63R = ApoC3 peptide … E63R (human, cyclic constrained)
Protocol: as §1, §2

ApoC3 peptide … V71Q = ApoC3 peptide … V71Q (human, cyclic constrained)
Protocol: as §1, §2

ApoC3 peptide … F61Q = target: T4, ApoC3 peptide … F61Q (human, not fully specified (bridges); also: cyclic constrained)
T4 peptide: DKQSEFWDLDPEV
Protocol: as §1, §2

ApoC3 peptide … E63I = ApoC3 peptide … E63I (human, cyclic constrained)
Protocol: as §1, §2

ApoC3 peptide … D66P = target: T5, ApoC3 peptide … D66P (human, not fully specified (bridges); also: cyclic constrained)
T5 peptide: DKFSEFWPLDPEV
Protocol: as §1, §2

ApoC3 peptide … F64L = target: T6, ApoC3 peptide … F64L (human, not fully specified (bridges); also: cyclic constrained)
T6 peptide: DKFSELWDLDPEV
Protocol: as §1, §2

ApoC3 peptide … S62W = ApoC3 peptide … S62W (human, cyclic constrained)
Protocol: as §1, §2

ApoC3 peptide … F61C = target: T7, ApoC3 peptide … F61C (human, cyclic constrained)
T7 peptide: DKCSEFWDLDPEV
Protocol: as §1, §2

ApoC3 peptide … S62T = ApoC3 peptide … S62T (human, cyclic constrained)
Protocol: as §1, §2

ApoC3 peptide … F64N = target: T8, ApoC3 peptide … F64N (human, not fully specified (bridges); also: cyclic constrained)
T8 peptide: DKFSENWDLDPEV
Protocol: as §1, §2

ApoC3 peptide … P69F = target: T9, ApoC3 peptide … P69F (human, not fully specified (bridges); also: cyclic constrained)
T9 peptide: DKFSEFWDLDFEV
Protocol: as §1, §2

ApoC3 peptide … E70W = target: T10, ApoC3 peptide … E70W (human, cyclic constrained)
T10 peptide: DKFSEFWDLDPWV
Protocol: as §1, §2

ApoC3 peptide … E70Y = target: T11, ApoC3 peptide … E70Y (human, cyclic constrained)
T11 peptide: DKFSEFWDLDPYV
Protocol: as §1, §2

ApoC3 peptide … S62I = ApoC3 peptide … S62I (human, cyclic constrained)
Protocol: as §1, §2

ApoC3 peptide … D66M = target: T12, ApoC3 peptide … D66M (human, not fully specified (bridges); also: cyclic constrained)
T12 peptide: DKFSEFWMLDPEV
Protocol: as §1, §2

ApoC3 peptide … D68N = target: T13, ApoC3 peptide … D68N (human, cyclic constrained)
T13 peptide: DKFSEFWDLNPEV
Protocol: as §1, §2

ApoC3 peptide … V71S = ApoC3 peptide … V71S (human, cyclic constrained)
Protocol: as §1, §2

ApoC3 peptide … V71I = ApoC3 peptide … V71I (human, cyclic constrained)
Protocol: as §1, §2

ApoC3 peptide … D68H = target: T14, ApoC3 peptide … D68H (human, cyclic constrained)
T14 peptide: DKFSEFWDLHPEV
Protocol: as §1, §2

ApoC3 peptide … F61D = target: T15, ApoC3 peptide … F61D (human, cyclic constrained)
T15 peptide: DKDSEFWDLDPEV
Protocol: as §1, §2

ApoC3 peptide … E63W = ApoC3 peptide … E63W (human, cyclic constrained)
Protocol: as §1, §2

ApoC3 peptide … W65E = ApoC3 peptide … W65E (human, cyclic constrained)
Protocol: as §1, §2

ApoC3 peptide … D59E = target: T16, ApoC3 peptide … D59E (human, cyclic constrained)
T16 peptide: EKFSEFWDLDPEV
Protocol: as §1, §2

ApoC3 peptide … D59S = target: T17, ApoC3 peptide … D59S (human, cyclic constrained)
T17 peptide: SKFSEFWDLDPEV
Protocol: as §1, §2

ApoC3 peptide … K60F = target: T18, ApoC3 peptide … K60F (human, not fully specified (bridges); also: cyclic constrained)
T18 peptide: DFFSEFWDLDPEV
Protocol: as §1, §2

ApoC3 peptide … W65M = target: T19, ApoC3 peptide … W65M (human, not fully specified (bridges); also: cyclic constrained, ring type and places not given here)
T19 peptide: DKFSEFMDLDPEV
Protocol: as §1, §2

ApoC3 peptide … F64T = target: T20, ApoC3 peptide … F64T (human, not fully specified (bridges); also: cyclic constrained)
T20 peptide: DKFSETWDLDPEV
Protocol: as §1, §2

ApoC3 peptide … E70A = ApoC3 peptide … E70A (human, cyclic constrained)
Protocol: as §1, §2

ApoC3 peptide … P69M = target: T21, ApoC3 peptide … P69M (human, not fully specified (bridges); also: cyclic constrained)
T21 peptide: DKFSEFWDLDMEV
Protocol: as §1, §2

ApoC3 peptide … D59T = target: T22, ApoC3 peptide … D59T (human, cyclic constrained)
T22 peptide: TKFSEFWDLDPEV
Protocol: as §1, §2

ApoC3 peptide … K60Y = target: T23, ApoC3 peptide … K60Y (human, not fully specified (bridges); also: cyclic constrained)
T23 peptide: DYFSEFWDLDPEV
Protocol: as §1, §2

B1: anti-ApoC3 antibody 6A6 (antibody, V domains shown)
VH: EVQLVESGGGLVQPGGSLRLSCAASGFTFSSYAGRWVRQVPGKGLEWVSSINAGGGSTSYADSVKGRFTISRDNAKNTLYLQMNSLKPEDTAKYYCTQNSYRYWGQGTRVAVSS
VL: DVVLTQTPGSLSVVPGESASISCKASQSLIHTDGKTYLYWLLQKPGQRPQLLIYQVSSHESGVPDRFTGSGSGTDFTLKISGVKAEDAGVYYCAQATYNPRTFGQGTKLEIK
notes: it was detected with goat anti-human IgG (Fc); also called mAb 6A6; llama antibody 6A6
% of binding to wild-type peptide (ApoC3 peptide … S62M): 63.5%
% of binding to wild-type peptide (ApoC3 peptide … E63G): 20.5%
% of binding to wild-type peptide (ApoC3 peptide … V71E): 228%
% of binding to wild-type peptide (ApoC3 peptide … D59I): 103%
% of binding to wild-type peptide (ApoC3 peptide … L67I): 105%
% of binding to wild-type peptide (ApoC3 peptide … W65C): 16%
% of binding to wild-type peptide (ApoC3 peptide … D66K): 0.33%
% of binding to wild-type peptide (ApoC3 peptide … W65D): 130%
% of binding to wild-type peptide (ApoC3 peptide … E63R): 5.31%
% of binding to wild-type peptide (ApoC3 peptide … V71Q): 81.4%
% of binding to wild-type peptide (ApoC3 peptide … F61Q): 64.5%
% of binding to wild-type peptide (ApoC3 peptide … E63I): 8.76%
% of binding to wild-type peptide (ApoC3 peptide … D66P): 0%
% of binding to wild-type peptide (ApoC3 peptide … F64L): 89.7%
% of binding to wild-type peptide (ApoC3 peptide … S62W): 4.78%
% of binding to wild-type peptide (ApoC3 peptide … F61C): 20.6%
% of binding to wild-type peptide (ApoC3 peptide … S62T): 139%
% of binding to wild-type peptide (ApoC3 peptide … F64N): 153%
% of binding to wild-type peptide (ApoC3 peptide … P69F): 97.7%
% of binding to wild-type peptide (ApoC3 peptide … E70W): 2.84%
% of binding to wild-type peptide (ApoC3 peptide … E70Y): 4.49%
% of binding to wild-type peptide (ApoC3 peptide … S62I): 129%
% of binding to wild-type peptide (ApoC3 peptide … D66M): 0.08%
% of binding to wild-type peptide (ApoC3 peptide … D68N): 0%
% of binding to wild-type peptide (ApoC3 peptide … V71S): 84.7%
% of binding to wild-type peptide (ApoC3 peptide … V71I): 54.3%
% of binding to wild-type peptide (ApoC3 peptide … D68H): 0%
% of binding to wild-type peptide (ApoC3 peptide … F61D): 31.3%
% of binding to wild-type peptide (ApoC3 peptide … E63W): 1.91%
% of binding to wild-type peptide (ApoC3 peptide … W65E): 168%
% of binding to wild-type peptide (ApoC3 peptide … D59E): 170%
% of binding to wild-type peptide (ApoC3 peptide … D59S): 87.5%
% of binding to wild-type peptide (ApoC3 peptide … K60F): 83.7%
% of binding to wild-type peptide (ApoC3 peptide … W65M): 19.1%
% of binding to wild-type peptide (ApoC3 peptide … F64T): 215%
% of binding to wild-type peptide (ApoC3 peptide … E70A): 0.97%
% of binding to wild-type peptide (ApoC3 peptide … P69M): 44.1%
% of binding to wild-type peptide (ApoC3 peptide … D59T): 101%
% of binding to wild-type peptide (ApoC3 peptide … K60Y): 83.9%
